This assay addresses human Na+-taurocholate co-transporting polypeptide (NTCP), detergent-purified, tags cleaved (Homo sapiens, UniProt Q14973). Briefly: cryo-EM structure.

Chain of human Na+-taurocholate co-transporting polypeptide (NTCP), detergent-purified, tags cleaved (Q14973 whole entry): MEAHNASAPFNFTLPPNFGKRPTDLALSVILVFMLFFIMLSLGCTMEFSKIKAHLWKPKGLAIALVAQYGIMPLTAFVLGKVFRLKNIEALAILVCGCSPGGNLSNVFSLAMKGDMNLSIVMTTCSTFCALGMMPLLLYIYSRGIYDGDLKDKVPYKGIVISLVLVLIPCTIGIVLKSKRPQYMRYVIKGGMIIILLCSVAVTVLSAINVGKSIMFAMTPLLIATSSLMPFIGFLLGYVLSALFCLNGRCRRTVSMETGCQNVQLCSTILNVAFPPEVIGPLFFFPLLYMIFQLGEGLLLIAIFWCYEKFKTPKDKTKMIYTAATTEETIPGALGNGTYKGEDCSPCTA

B1: Fab3 (Fab, V domains shown)
VH: EVQLVESGGGLVQPGGSLRLSCAASGFNVSSSYIHWVRQAPGKGLEWVASISPYYSYTSYADSVKGRFTISADTSKNTAYLQMNSLRAEDTAVYYCARYQYDYYYSYYAGLDYWGQGTLVTVSS
VL: DIQMTQSPSSLSASVGDRVTITCRASQSVSSAVAWYQQKPGKAPKLLIYSASSLYSGVPSRFSGSRSGTDFTLTISSLQPEDFATYYCQQYRYSLITFGQGTKVEIK
B1: the binding result was “binds”.

Source of the values: paper doi:10.1101/2024.01.22.576510 (bioRxiv, 2024).
